Experimental data reported in patent US20160355553A1 (Janssen / Centocor, published 2016).

Legend:
[1] = target: H3 Full-length A/Hong Kong/1/1968 (influenza A virus H3N2, UniProt Q91MA7 17-566); assay: FACS on HEK293F [D00014 FIG. 10B]
H3-mini2-cl9+10 = H3-mini2-cl9+10 (influenza A virus H3N2, UniProt O11283 17-566); assay: FACS on HEK293F [D00012 FIG. 9B]
H3-mini3-cl9+10+11+12+14 = H3-mini3-cl9+10+11+12+14 (influenza A virus H3N2, UniProt O11283 17-566); assay: FACS on HEK293F [D00012 FIG. 9B]
H3-mini4-cl9+10+11+12+14 = H3-mini4-cl9+10+11+12+14 (influenza A virus H3N2, UniProt O11283 17-566); assay: FACS on HEK293F [D00012 FIG. 9B]
H3-mini2-cl9+13 = H3-mini2-cl9+13 (influenza A virus H3N2, UniProt O11283 17-566); assay: FACS on HEK293F [D00012 FIG. 9B]
H3-mini2 = H3-mini2 (influenza A virus H3N2, UniProt O11283 17-566); assay: FACS on HEK293F [D00012 FIG. 9B]
[2] = target: H3-mini2-cl9+10+11+13-tri (influenza A virus H3N2); assay: FACS on HEK293F [D00012 FIG. 9B]
H3-mini2-cl9+10+11 = H3-mini2-cl9+10+11 (influenza A virus H3N2, UniProt O11283 17-566); assay: FACS on HEK293F [D00012 FIG. 9B]
[3] = target: H3-mini2-cl9+10+11+12-tri (influenza A virus H3N2, UniProt O11283 17-566); assay: FACS on HEK293F [D00012 FIG. 9B]
[4] = target: H3-mini2-cl9+10+11+13-GCN4 (influenza A virus H3N2); assay: FACS on HEK293F [D00012 FIG. 9B]
H3-mini2-cl9+10+11+12 = H3-mini2-cl9+10+11+12 (influenza A virus H3N2, UniProt O11283 17-566); assay: FACS on HEK293F [D00012 FIG. 9B]
H3mini2-cl9+10+11-GCN4 = H3mini2-cl9+10+11-GCN4 (influenza A virus H3N2); assay: FACS on HEK293F [D00012 FIG. 9B]
H3-mini2-cl9+11 = H3-mini2-cl9+11 (influenza A virus H3N2, UniProt O11283 17-566); assay: FACS on HEK293F [D00012 FIG. 9B]
H3-mini2-cl9+10+11+13 = H3-mini2-cl9+10+11+13 (influenza A virus H3N2, UniProt O11283 17-566); assay: FACS on HEK293F [D00012 FIG. 9B]
H3-mini2-cl9+10+11-tri = H3-mini2-cl9+10+11-tri (influenza A virus H3N2); assay: FACS on HEK293F [D00012 FIG. 9B]
H3-mini2-cl9+10+12 = H3-mini2-cl9+10+12 (influenza A virus H3N2, UniProt O11283 17-566); assay: FACS on HEK293F [D00012 FIG. 9B]
[5] = target: H3-mini2-cl9+10+11+12-GCN4 (influenza A virus H3N2, UniProt O11283 17-566); assay: FACS on HEK293F [D00012 FIG. 9B]
[6] = target: mini3 cluster11 (A/Brisbane/59/2007) (influenza A virus H1N1, UniProt A8C8J4 18-565); assay: FACS on HEK293F
[7] = target: mini1 cluster11 (A/Brisbane/59/2007) (influenza A virus H1N1, UniProt A8C8J4 18-565); assay: FACS on HEK293F
[8] = target: mini2 cluster11 (A/Brisbane/59/2007) (influenza A virus H1N1, UniProt A8C8J4 18-565); assay: FACS on HEK293F
H3 Mini-HA cluster 1+2 = H3 Mini-HA cluster 1+2 (influenza A virus H3N2, UniProt O11283 17-566); assay: FACS on HEK293F [D00010 FIG. 8B]
H3 Mini-HA cluster 1+6 = H3 Mini-HA cluster 1+6 (influenza A virus H3N2, UniProt O11283 17-566); assay: FACS on HEK293F [D00010 FIG. 8B]
H3 Mini-HA cluster 1+7 = H3 Mini-HA cluster 1+7 (influenza A virus H3N2, UniProt O11283 17-566); assay: FACS on HEK293F [D00010 FIG. 8B]
H3 Mini-HA cluster 1 = H3 Mini-HA cluster 1 (influenza A virus H3N2, UniProt O11283 17-566); assay: FACS on HEK293F [D00010 FIG. 8B]
H3 Mini-HA cluster 1+4 = H3 Mini-HA cluster 1+4 (influenza A virus H3N2, UniProt O11283 17-566); assay: FACS on HEK293F [D00010 FIG. 8B]
H3 Mini-HA cluster 1+8 = H3 Mini-HA cluster 1+8 (influenza A virus H3N2, UniProt O11283 17-566); assay: FACS on HEK293F [D00010 FIG. 8B]
H3 Mini-HA cluster 1+3 = H3 Mini-HA cluster 1+3 (influenza A virus H3N2, UniProt O11283 17-566); assay: FACS on HEK293F [D00010 FIG. 8B]

Measured: binding result

B1: CR6261 (antibody, V domains shown)
VH: EVQLVESGAEVKKPGSSVKVSCKASGGPFRSYAISWVRQAPGQGPEWMGGIIPIFGTTKYAPKFQGRVTITADDFAGTVYMELSSLRSEDTAMYYCAKHMGYQVRETMDVWGKGTTVTVSS
VL: QSVLTQPPSVSAAPGQKVTISCSGSSSNIGNDYVSWYQQLPGTAPKLLIYDNNKRPSGIPDRFSGSKSGTSATLGITGLQTGDEANYYCATWDRRPTAYVVFGGGTKLTVLG
no binding (tested: 5 ug/ml): [1] | H3-mini2-cl9+10 | H3-mini3-cl9+10+11+12+14 | H3-mini4-cl9+10+11+12+14 | H3-mini2-cl9+13 | H3-mini2 | [2] | H3-mini2-cl9+10+11 | [3] | [4] | H3-mini2-cl9+10+11+12 | H3mini2-cl9+10+11-GCN4 | H3-mini2-cl9+11 | H3-mini2-cl9+10+11+13 | H3-mini2-cl9+10+11-tri | H3-mini2-cl9+10+12 | [5] | H3 Mini-HA cluster 1+2 | H3 Mini-HA cluster 1+6 | H3 Mini-HA cluster 1+7 | H3 Mini-HA cluster 1 | H3 Mini-HA cluster 1+4 | H3 Mini-HA cluster 1+8 | H3 Mini-HA cluster 1+3
binds: [6] | [7] | [8]
